Experimental findings from IntAct's records for PubMed 24141787 are described below.

B1: Partner and localizer of BRCA2 (Homo sapiens), Q86YC2 (parent)
chain: MDEPPGKPLSCEEKEKLKEKLAFLKREYSKTLARLQRAQRAEKIKHSIKKTVEEQDCLSQQDLSPQLKHSEPKNKICVYDKLHIKTHLDEETGEKTSITLDVGPESFNPGDGPGGLPIQRTDDTQEHFPHRVSDPSGEQKQKLPSRRKKQQKRTFISQERDCVFGTDSLRLSGKRLKEQEEISSKNPARSPVTEIRTHLLSLKSELPDSPEPVTEINEDSVLIPPTAQPEKGVDTFLRRPNFTRATTVPLQTLSDSGSSQHLEHIPPKGSSELTTHDLKNIRFTSPVSLEAQGKKMTVSTDNLLVNKAISKSGQLPTSSNLEANISCSLNELTYNNLPANENQNLKEQNQTEKSLKSPSDTLDGRNENLQESEILSQPKSLSLEATSPLSAEKHSCTVPEGLLFPAEYYVRTTRSMSNCQRKVAVEAVIQSHLDVKKKGFKNKNKDASKNLNLSNEETDQSEIRMSGTCTGQPSSRTSQKLLSLTKVSSPAGPTEDNDLSRKAVAQAPGRRYTGKRKSACTPASDHCEPLLPTSSLSIVNRSKEEVTSHKYQHEKLFIQVKGKKSRHQKEDSLSWSNSAYLSLDDDAFTAPFHRDGMLSLKQLLSFLSITDFQLPDEDFGPLKLEKVKSCSEKPVEPFESKMFGERHLKEGSCIFPEELSPKRMDTEMEDLEEDLIVLPGKSHPKRPNSQSQHTKTGLSSSILLYTPLNTVAPDDNDRPTTDMCSPAFPILGTTPAFGPQGSYEKASTEVAGRTCCTPQLAHLKDSVCLASDTKQFDSSGSPAKPHTTLQVSGRQGQPTCDCDSVPPGTPPPIESFTFKENQLCRNTCQELHKHSVEQTETAELPASDSINPGNLQLVSELKNPSGSCSVDVSAMFWERAGCKEPCIITACEDVVSLWKALDAWQWEKLYTWHFAEVPVLQIVPVPDVYNLVCVALGNLEIREIRALFCSSDDESEKQVLLKSGNIKAVLGLTKRRLVSSSGTLSDQQVEVMTFAEDGGGKENQFLMPPEETILTFAEVQGMQEALLGTTIMNNIVIWNLKTGQLLKKMHIDDSYQASVCHKAYSEMGLLFIVLSHPCAKESESLRSPVFQLIVINPKTTLSVGVMLYCLPPGQAGRFLEGDVKDHCAAAILTSGTIAIWDLLLGQCTALLPPVSDQHWSFVKWSGTDSHLLAGQKDGNIFVYHYS
partner: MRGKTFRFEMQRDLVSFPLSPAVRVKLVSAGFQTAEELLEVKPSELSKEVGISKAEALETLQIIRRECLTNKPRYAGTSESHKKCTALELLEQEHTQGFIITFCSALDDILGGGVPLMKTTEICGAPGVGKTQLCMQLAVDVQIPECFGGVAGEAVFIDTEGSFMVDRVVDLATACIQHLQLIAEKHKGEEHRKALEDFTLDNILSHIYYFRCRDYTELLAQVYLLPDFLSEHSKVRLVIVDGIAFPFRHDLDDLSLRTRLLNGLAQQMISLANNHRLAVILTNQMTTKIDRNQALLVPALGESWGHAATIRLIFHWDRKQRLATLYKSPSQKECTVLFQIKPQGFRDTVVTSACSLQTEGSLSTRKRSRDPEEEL
B2: Partner and localizer of BRCA2 (Homo sapiens), Q86YC2 (parent)
chain: B1 chain
B3: Partner and localizer of BRCA2 (Homo sapiens), Q86YC2 (parent)
chain: B1 chain
partner: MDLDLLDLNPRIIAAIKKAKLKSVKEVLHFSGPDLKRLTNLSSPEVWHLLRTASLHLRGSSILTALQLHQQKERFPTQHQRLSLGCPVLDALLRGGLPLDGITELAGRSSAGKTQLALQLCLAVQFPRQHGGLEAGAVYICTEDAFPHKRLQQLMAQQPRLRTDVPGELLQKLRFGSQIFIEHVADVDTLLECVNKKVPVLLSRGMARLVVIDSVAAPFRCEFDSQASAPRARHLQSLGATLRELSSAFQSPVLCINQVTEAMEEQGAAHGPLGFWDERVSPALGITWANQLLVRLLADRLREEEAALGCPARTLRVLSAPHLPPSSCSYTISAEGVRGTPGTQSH

In the first experiment the parent is B1. As to conditions: with ra51c_human RAD51C.
In the case of T1030I, the “effect of a mutation on the interaction” value was “decreasing interaction”.

The next experiment covers variants of B2. As to conditions: with rad51_human RAD51, Q06609.
Sequence of rad51_human RAD51, Q06609 (Q06609 whole entry): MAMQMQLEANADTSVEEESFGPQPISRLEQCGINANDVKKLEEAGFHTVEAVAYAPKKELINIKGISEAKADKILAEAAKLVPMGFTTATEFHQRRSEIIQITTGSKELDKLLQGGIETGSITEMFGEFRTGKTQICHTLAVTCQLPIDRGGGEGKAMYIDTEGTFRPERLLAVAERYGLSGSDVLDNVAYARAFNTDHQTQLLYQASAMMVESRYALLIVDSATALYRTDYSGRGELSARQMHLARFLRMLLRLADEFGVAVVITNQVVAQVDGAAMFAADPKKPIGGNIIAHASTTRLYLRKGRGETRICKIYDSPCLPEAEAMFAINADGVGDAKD
T1030I: the “effect of a mutation on the interaction” value is recorded as “decreasing interaction”.

Turning to L939W, the “effect of a mutation on the interaction” value is reported as “decreasing interaction”.

The variants in another experiment derive from B3. As to conditions: with xrcc3_human XRCC3, O43542.
L939W: the “effect of a mutation on the interaction” value is “decreasing interaction”.
